From publication PMC4475061 (2015)

B1: ULK3 fused to the VP16 activation domain [human] / CHMP1B WT fused to the Gal4 DNA-binding domain [human] (parent complex)
chain 1: MAGPGWGPPRLDGFILTERLGSGTYATVYKAYAKKDTREVVAIKCVAKKSLNKASVENLLTEIEILKGIRHPHIVQLKDFQWDSDNIYLIMEFCAGGDLSRFIHTRRILPEKVARVFMQQLASALQFLHERNISHLDLKPQNILLSSLEKPHLKLADFGFAQHMSPWDEKHVLRGSPLYMAPEMVCQRQYDARVDLWSMGVILYEALFGQPPFASRSFSELEEKIRSNRVIELPLRPLLSRDCRDLLQRLLERDPSRRISFQDFFAHPWVDLEHMPSGESLGRATALVVQAVKKDQEGDSAAALSLYCKALDFFVPALHYEVDAQRKEAIKAKVGQYVSRAEELKAIVSSSNQALLRQGTSARDLLREMARDKPRLLAALEVASAAMAKEEAAGGEQDALDLYQHSLGELLLLLAAEPPGRRRELLHTEVQNLMARAEYLKEQVKMRESRWEADTLDKEGLSESVRSSCTLQ
chain 2: MEKHLFNLKFAAKELSRSAKKCDKEEKAEKAKIKKAIQKGNMEVARIHAENAIRQKNQAVNFLRMSARVDAVAARVQTAVTMGKVTKSMAGVVKSMDATLKTMNLEKISALMDKFEHQFETLDVQTQQMEDTMSSTTTLTTPQNQVDMLLQEMADEAGLDLNMELPQGQTGSVGTSVASAEQDELSQRLARLRDQV
B2: CHMP1B WT fused to the Gal4 DNA-binding domain [human] / CHMP1A (positive-control partner of the Gal4-CHMP1B constructs in the two-hybrid assay) [human] (parent complex)
chain 1: B1 chain 2
chain 2: MDDTLFQLKFTAKQLEKLAKKAEKDSKAEQAKVKKALLQKNVECARVYAENAIRKKNEGVNWLRMASRVDAVASKVQTAVTMKGVTKNMAQVTKALDKALSTMDLQKVSSVMDRFEQQVQNLDVHTSVMEDSMSSATTLTTPQEQVDSLIMQIAEENGLEVLDQLSQLPEGASAVGESSVRSQEDQLSRRLAALRN
B3: ULK3 fused to the VP16 activation domain [human] / CHMP1A fused to the Gal4 DNA-binding domain [human] (parent complex)
chain 1: B1 chain 1
chain 2: B2 chain 2
B4: CHMP1B WT fused to the Gal4 DNA-binding domain [human] / ULK3 fused to the VP16 activation domain [human] (parent complex)
chain 1: B1 chain 2
chain 2: B1 chain 1

Variants of: B1
Experiment: yeast two-hybrid (β-galactosidase activity); read off a plot

Row | response | Variant
1 | ~0.061 | chain 1 MAGPGWGPPRLDGFILTERLGSGTYATVYKAYAKKDTREVVAIKCVAKKSLNKASVENLLTEIEILKGIRHPHIVQLKDFQWDSDNIYLIMEFCAGGDLSRFIHTRRILPEKVARVFMQQLASALQFLHERNISHLDLKPQNILLSSLEKPHLKLADFGFAQHMSPWDEKHVLRGSPLYMAPEMVCQRQYDARVDLWSMGVILYEALFGQPPFASRSFSELEEKIRSNRVIELPLRPLLSRDCRDLLQRLLERDPSRRISFQDFFAHPWVDLEHMPSGESLGRATALVVQAVKKDQEGDSAAALSLYCKALDFFVPALHYEVDAQRKEAIKAKVGQYDSRAEELKAIVSSSNQALLRQGTSARDLLREMARDKPRLLAALEVASAAMAKEEAAGGEQDALDLYQHSLGELLLLLAAEPPGRRRELLHTEVQNLMARAEYLKEQVKMRESRWEADTLDKEGLSESVRSSCTLQ [chain 1 V338D]
2 | ~0.051 | chain 1 MAGPGWGPPRLDGFILTERLGSGTYATVYKAYAKKDTREVVAIKCVAKKSLNKASVENLLTEIEILKGIRHPHIVQLKDFQWDSDNIYLIMEFCAGGDLSRFIHTRRILPEKVARVFMQQLASALQFLHERNISHLDLKPQNILLSSLEKPHLKLADFGFAQHMSPWDEKHVLRGSPLYMAPEMVCQRQYDARVDLWSMGVILYEALFGQPPFASRSFSELEEKIRSNRVIELPLRPLLSRDCRDLLQRLLERDPSRRISFQDFFAHPWVDLEHMPSGESLGRATALVVQAVKKDQEGDSAAALSLYCKALDFFVPALHYEVDAQRKEAIKAKVGQYVSRAEELKAIVSSSNQALLRQGTSARDLLREMARDKPRLLAALEVASAAMAKEEAAGGEQDALDLYQHSLGELLLLLAAEPPGRRRELLHTEVQNLDARAEYLKEQVKMRESRWEADTLDKEGLSESVRSSCTLQ [chain 1 M434D]

Variants of: B2
Experiment: as above

Row | response | Variant
3 | ~0.77 | chain 1 MEKHLFNLKFAAKELSRSAKKCDKEEKAEKAKIKKAIQKGNMEVARIHAENAIRQKNQAVNFLRMSARVDAVAARVQTAVTMGKVTKSMAGVVKSMDATLKTMNLEKISALMDKFEHQFETLDVQTQQMEDTMSSTTTLTTPQNQVDMLLQEMADEAGLDLNMELPQGQTGSVGTSVASAEQDELSQAAARLRDQV [chain 1 R188A, chain 1 L189A]
4 | ~0.62 | chain 1 MEKHLFNLKFAAKELSRSAKKCDKEEKAEKAKIKKAIQKGNMEVARIHAENAIRQKNQAVNFLRMSARVDAVAARVQTAVTMGKVTKSMAGVVKSMDATLKTMNLEKISALMDKFEHQFETLDVQTQQMEDTMSSTTTLTTPQNQVDMLLQEMADEAGLDLNMELPQGQTGSVGTSVASAEQDEAAARLARLRDQV [chain 1 L185A, chain 1 S186A, chain 1 Q187A]
5 | ~0.54 | chain 1 MEKHLFNLKFAAKELSRSAKKCDKEEKAEKAKIKKAIQKGNMEVARIHAENAIRQKNQAVNFLRMSARVDAVAARVQTAVTMGKVTKSMAGVVKSMDATLKTMNLEKISALMDKFEHQFETLDVQTQQMEDTMSSTTTLTTPQNQVDMLLQEMADEAGLDLNMELPQGQTGSVGTSVASAEQDELSQRLAAAADQV [chain 1 R191A, chain 1 L192A, chain 1 R193A]
6 | ~0.48 | chain 1 MEKHLFNLKFAAKELSRSAKKCDKEEKAEKAKIKKAIQKGNMEVARIHAENAIRQKNQAVNFLRMSARVDAVAARVQTAVTMGKVTKSMAGVVKSMDATLKTMNLEKISALMDKFEHQFETLDVQTQQMEDTMSSTTTLTTPQNQVDMLLQEMADEAGLDLNMELPQGQTGSVGTSVASAEQDELSQRLARLRAAA [chain 1 D194A, chain 1 Q195A, chain 1 V196A]

Variants of: B3
Experiment: as above

Row | response | Variant
7 | ~0.075 | chain 1 MAGPGWGPPRLDGFILTERLGSGTYATVYKAYAKKDTREVVAIKCVAKKSLNKASVENLLTEIEILKGIRHPHIVQLKDFQWDSDNIYLIMEFCAGGDLSRFIHTRRILPEKVARVFMQQLASALQFLHERNISHLDLKPQNILLSSLEKPHLKLADFGFAQHMSPWDEKHVLRGSPLYMAPEMVCQRQYDARVDLWSMGVILYEALFGQPPFASRSFSELEEKIRSNRVIELPLRPLLSRDCRDLLQRLLERDPSRRISFQDFFAHPWVDLEHMPSGESLGRATALVVQAVKKDQEGDSAAALSLYCKALDFFVPALHYEVDAQRKEAIKAKVGQYDSRAEELKAIVSSSNQALLRQGTSARDLLREMARDKPRLLAALEVASAAMAKEEAAGGEQDALDLYQHSLGELLLLLAAEPPGRRRELLHTEVQNLMARAEYLKEQVKMRESRWEADTLDKEGLSESVRSSCTLQ [chain 1 V338D]

Variants of: B4
Experiment: as above

Row | response | Variant
8 | ~0.028 | chain 1 MEKHLFNLKFAAKELSRSAKKCDKEEKAEKAKIKKAIQKGNMEVARIHAENAIRQKNQAVNFLRMSARVDAVAARVQTAVTMGKVTKSMAGVVKSMDATLKTMNLEKISALMDKFEHQFETLDVQTQQMEDTMSSTTTLTTPQNQVDMLLQEMADEAGLDLNMELPQGQTGSVGTSVASAEQDELSQRLAAAADQV [chain 1 R191A, chain 1 L192A, chain 1 R193A]
